# According to patent US20200239524A1 (University of Washington, published 2020):
# B1: BimLOCKRc (nine residue toehold) (designed binder)
# chain: MGSSHHHHHHSSGLVPRGSHMSLEAVLKLAELNLKLSDKLAEAVQKLAALLNKLLEKLSEALQRLFELNVALVTLAIELTDPKRIADEIKKVKDKSKEIVERAEEEIARAAAESKKILDEAEEEIARAAAESKKILDEGSGSGSDAVAELQALNLKLAELLLEAVAELQALNLKLAELLLEAIAKLQELNIKLVELLTKLTDPATIREAIRKVKEDSERIVAEAERLIAAAKAESERIIREAERLIAAAKAESERIIREGSGSNDPLVARLQELLIEHARELLRLVATSQEIFIELARAFLANAAQLQEAAIKAVEAASENGSGEIWIAQELRRIGDEFNAYYAQNQKLLKDHKRAQEKLNRELEELKKKHKK
# notes: also called printed once as 'BimLOCKR,'
# B2: BimLOCKRb (nine residue toehold) (designed binder)
# chain: MGSSHHHHHHSSGLVPRGSHMSHAAVIKLSDLNIRLLDKLLQAVIKLTELNAELNRKLIEALQRLFDLNVALVHLAAELTDPKRIADEIKKVKDKSKEIVERAEEEIARAAAESKKILDEAEEEIARAAAESKKILDEGSGSGSDAVAELQALNLKLAELLLEAVAELQALNLKLAELLLEAIAKLQELNIKLVELLTKLTDPATIREAIRKVKEDSERIVAEAERLIAAAKAESERIIREAERLIAAAKAESERIIREGSGSNDPQVAQNQETFIELARDALRLVAENQEAFIEVARLTLRAAALAQEVAIKAVEAASEGGSGSGNEIWIAQELRRIGDEFNAYYAEHKEIHDKLRKKNKKAREDLKKKADE
# Target: T1, Bcl2 (UniProt P10415 1-207, limits assumed, biotinylated)
# T1 construct: Loaded on streptavidin biosensors; also called Biotinylated Bcl2; target
# Test: bio-layer interferometry (Octet), Bcl2 on tips, switch with nine residue toehold with and without cognate key
# Source text: Specificity was designed for using different hydrogen bond networks at the cage-key interface. The latch helix was deleted from the original extended LOCKRₐ model and backbones for a new sixth helix were generated by parametrically sampling the radius, helical phase, and z-offset of the new latch/key helix. The resulting structures were scanned for new hydrogen bond networks spanning the interface between the new sixth helix and cage with all buried polar atoms participating in hydrogen bonds; the remaining interface around the networks was subjected to full sequence and sidechain rotamer optimization using Rosetta™ design. Five designs were selected based on packing quality, sequence dissimilarity, and lack of buried polar atoms not participating in hydrogen bonds. Truncations and toehold variants were assayed for cognate and off target key binding using the GFP pulldown assay from FIG. 1c. […] All bound keyₐ to some extent yet is unknown. The Bim sequence was threaded onto the latches of these three designs as it was for the original design, BimLOCKRₐ (FIG. 2). BimLOCKRb and BimLOCKR, show 22-fold and 8-fold activation, respectively, from their cognate keys given a nine residue toehold on the latch (FIG. 3a,b). BimLOCKRₐ, BimLOCKRb and BimLOCKRc are also orthogonal; each is activated only by its cognate key at concentrations up to 5 uM (FIG. 3c). […]
# T1 sequence (P10415 1-207 limits assumed): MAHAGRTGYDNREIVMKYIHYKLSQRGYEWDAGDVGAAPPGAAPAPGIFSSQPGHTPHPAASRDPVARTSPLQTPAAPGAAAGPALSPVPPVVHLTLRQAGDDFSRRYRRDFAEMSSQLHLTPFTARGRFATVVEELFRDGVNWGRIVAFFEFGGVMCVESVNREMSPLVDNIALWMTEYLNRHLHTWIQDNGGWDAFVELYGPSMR
row,Binder,fold activation of binding by the cognate key
1,B1,8 fold
2,B2,22 fold
